Results published in the DeepSol protein solubility set.

Experiment: soluble on expression in E. coli; label from the status in PepcDB or PDB records

| Sequence | soluble on expression in E. coli |
| --- | --- |
| MGSDKIHHHHHHMTMQQVLDGTATFMEHLGLNEEPLGVYYSDDKPENAFGPKTGVPISRELEESGKLDMREVMKSFTCVMGSIWLARKKHGAAFISQTEYGCPGGVYYCAMLQPHLRFIEHYVSTGFEGTPLQGERYMPDPDAMRNFILRVAPRKAPARYCIFKPLSLFSAQEKPEFIIFFARPEVLTGLFTQTVFTTGDMDCVASPFGAGCTNILGWPLYYKEKGIEKAVIGGFDPSARKFMKTDELTFTVPLSLYEKMLAALPESMFTHETDWKNVRKKVARSAKAWRVRRPGAKQPPPSTCPITY | not soluble |
| MGSDKIHHHHHHMTPIRLIIVGLGARALTWIKVARANPDVEIVALCDPDPSARSAAARQFPKLPIGKDITDIIGTAADAVLLATPPRGREAQIEACCTHGLAVLAEKPLSDSVVTAARFVEMAEQAGVPLIVGLNFRYLAVTQEKRRLLADGAIGTPEFGRFIYERWRDGTQDWLNSYPLTMDHPMLWEQSIHHFDLMRYVHGVEPEYVQAHTANPSWTMYEGDTNVSALIGFKGGFHITYQGTWQSGHEPMNFNWRTDGSEGIVVQRAMFGDLAWAKRMEPELTPVDLPAHEAWITDAAALLDRFVAILRGATPECTGRDHLQSLFMLEACILASARRATVTIDEVRALTTPKETS | not soluble |
| MGSDKIHHHHHHMTPNPRHWARELWQRSRDRGLQTHIDVLVDATGLDDYPLLAEHARQSDPPALFKLLEQTPEAALADEGPLLLRLEDGHAAWLDELLERIDCRRHLMLLFSPWPLPRLGEHLRSCTQAEWNQGRSSGVLRFYEPGLFMAVSDMLDPRQSCYLHAPVSSWHWLDRDGRPRALAGHYQAHETPPLQAALRLEAHQVAALRAWSEAEAYRREYFVLPREHGLGSQESLLQHLVQAHLAADRQGLQDFDQRDAFVAQWLREQTPGPGFSPAGTSRA | not soluble |
| MGSDKIHHHHHHMTPRDTVAAFPATSQQSAIRATPFVWIEPANIPPRKWLYGHHLIRGYVSLTVAPGATGKSSLLIADALAMSANRNLVGTPVYAGRPLRVWIWNLEDPIDELQRRITATAIQYQIHSTDIEGRLFVDSGRDQSLCIARQGHNGIEILDPVIDALQAEILAREIDVLIVDPFVSSHQVSENDNGAIDAVAKKWGAIADRTGCAIELVHHLRKLPHGIEATAESARGAVSLVAAARSVRVLNRMAKEEALQCGLTSNKGHFKVSDDKNNLAAATDSENWFRMESVQLDNGDNVGVVVQWDKPDPFDGITPRHLLAVQKAIDGKDYRQNVQATDWVGQHIGHIVGLDPAKPHDKNRLKSLIKTWINNGALIADEIMNKKGRPTPVIAVGKWVTAAEVAATNVADDEFPLG | not soluble |
| MGSDKIHHHHHHMTQKESIRLFEERKVRAIWDDEQEEWYFSIVDVISILTDSPNPRKYWSVLKTRLKREGSELTTNCSQLKMQAADGKKYLTDVANTEQLFRLIQSVPSPKAEPFKLWIAQVAKERLDQMQDPELSIEQAMADYKRLGYSDNWINQRLKSIEIRKDLTDEWKKRGLEEGLHFATLTDIIYKSWSDMTSKEYKRFKGLRKENLRDNMTNKELVLNMLAELSTKEISEASEPDTFSEHINVAQQGGEVARNARLELEAKTGKSVISPLNAQKIISLKKGENERDV | not soluble |
| MGSDKIHHHHHHMTQKLPRQATASEESLMRIFTVPEDAESTLSIIEQKLSEDLAGFLGDSIAALEKPLSEIETDFQAFKIPTQPRFVSDYTDEIMQNLVAHSVHTSAPSFIGHMTSALPYFVLPLSKMMVGLNQNLVKIETSKAFTPLERQVLGMMHHLIYAQNTDFYQSWMHSANHSLGAFCSGGTVANITALWIARNQLLKADGEFKGVTREGLLKALRYYGYDDLAILVSERGHYSLGKAVDLLGIGRDNIISIPTDSHNKVDIAKMRKAALELARKNIKVLAIVGVAGTTETGNVDPLIELAALAKELNCHFHVDAAWGGASLLSNKYRHLLAGIELADSVTIDAHKQMYVPMGAGMVLFKNPEFAHAIAHHAEYILRRGSKDLGSQTLEGSRPGMAMLVHACLQIIGLDGYEILINNSIEKARYFAEQIKAHRDFELVTEPELCLLTYRYVPAKVQAAMQVAIEQGDTAKLARFNELLDGLTQFIQKHQREQGKSFVSRTRISPARYFRQATVVFRVVLANPLTSHDILNQVLVEQSEIAALDKEFLPALLAMVAE | not soluble |
| MGSDKIHHHHHHMTSELETAANPEKLKRIVIEPVTRVEGHGKVTLLLDEDNRVQQARFHIVEFRGFEKFIQGRPYTEVPVLVQRLCGICPVSHNLAASKAMDVIVGAAPPPAADKLRRLMHMGQMLQSHALHFFHLSSPDLLFGFDAEVGKRNIAGLAMQFPDIARQGVGLRKFGQEVIRMTSGKRVHGTGVIPGGMSKNLSREDRDWLLAEIDQVVRWSQQAVNLIKRLYGEHKDFYNNFGYYRSSFMSLVREDGAMDLYHGNLRAIDDKGQTIFDHVDYSHYGDYIHEEVKSWSYMKFPFIRSQGREEGWYRVGPLARVNNCDFIPTPLAEAERKIFKEYDGGRASHATLSFHWARMIEMLHSAEAIRELLHDDDLLSDDLVNIGERQLRGVGVIEAPRGTLIHHYRINEDEQIVRANLIVATTHNNQAMNEAIRQVSLQYLDGQQLTEGLLNYIEVAIRAFDPCLSCATHALGKMPLEVELVDAEGARVKRIIKDSDGGYRA | not soluble |
| MGSDKIHHHHHHMTSMEFKIKRDGLALQARLETPAAPSSTLVILMHGFTADMGYDTTQFVPQLAQALVAHGLAVLRFDFNGHGCSEGRFQDMTVINEIADAKAVLDEALTLHYDHIVLAGHSQGGVVASMLAGYYPDVVDKLILMAPAATLKSDAQQGVLQGATYDPQHIPAYLNIRDGLKVGGFYLRTAQQLPIYEVAQQYAGSVTLIHVTADTVVSPQASEKYHEVYQHSQLHWVQDGGHRFSGDARATAIQLALAAFK | not soluble |
| MGSDKIHHHHHHMTSPNTTQGAADPIQSYLNQGLRNYWYPVAPSWQVGDAPVGITRLGDQIVLWRDKEGKVRALEDRCPHRGARLSLGWNLGGSVACWYHGIEVDGGGTVTKVPAVSNCPLEGQKCVKSYPVEEHAGAIFLWFGDDAHKEPAPLVLPEELVGEEYASFLCMSHWKCNYQYAIDNVMDPMHGAYLHATSHSMAEGDKQADMRVRKTETGLMFEKIGQRDVNFDWVELGETGCLWMRLAIPYKKKFGPGGNFGIIGFAVPVDEDNCQVYFWRTRKVQGWQRDAWRFMYRNRLEGLHWAVLEQDRYVLESMAPNARDHEFLYQHDVGMTRVRRMLRQRAQQHFADLDAHRAQAVSATPAAAEAGHSHA | not soluble |
| MGSDKIHHHHHHMTSTLPVPEPHQSDSANTDANSLSWEEELDSAIFSFEDIQTELNYKQAQTALRNLVANLDLTPQEKTGLETEIADLETMLGKLDRMVVQIAAFGMVGRGKSSLLNSLVGQTVFETGPLHGVTRTAQTVNWSISEEAIGETERALRVTLPGVGQSQVKLIDTPGLDEVDGATRAVLAEQIAKQADLILFVISGDMTKLEYAALSQLREAGKPIILVFNKVDQYPEADRMAIYHKIRDERVRELLTPLEIVMAAASPLVKTAIRRPDGTRGIQLRTGNAQVEELKLKILEILHREGKALVALNTMLYADVVNEQLIERKLMIREQNANQLIWKAVMTKALAIALNPVTVVDILSSVVIDIALILGLSKLYGFSMTEAGAVQLLQKIALSMGGIGASELLANLGLSGLKTLLGISATATAGVALGPYISVAVTQGGVAGVSSYGIGQVTKVYLANGATWGPDGPKAVINRILANLDETSILNRIKDELLHKVRLRK | not soluble |
| MGSDKIHHHHHHMTTATPLLSLQKPTPIALAEIEESLSQLWANQQHSGAGALVSRAATFSIVVYEPEEFQQILAALGLYHGHLDGLHGPMTRAAIAQAQTQFGLPSTGRPDSATFKALRQAYQALKHSPSLTNQDLRGAVLSNVIATQNPCRIVSLCPTLEGDRPISAEVSAYCPITSAKQASLICCEAVTLRGSQAEMEAIGTFVSELLLPGLPRYVWWKATPNPEQLLFQQLANSCNCMIFDSSYFSDPEAEFLRFQDLIDQETYIADLNWHRLAAWQELTAAAFDPPERRDGLLEVDQLVIDYEKGNPAQALMYMGWIASRLGWQPVSYRCEGGEYDLRQIEFRTEDDRMVKVELAGIPVGDPGLVLGDLIALRLTSENPDADCCTILCSETTGCMRMEAGGGAQSCRTEQVAPPSNETSESLLAMQMQRWGRDALYEESLAVIAVALRQRTHA | not soluble |
| MGSDKIHHHHHHMTTFHDLPLEERLTLARLGTSHYSRQLSLVDNAEFGEHSLLEGWTRSHLIAHVAYNAIALCNLMHWANTGEETPMYVSPEARNEEIAYGSTLNPDALRNLHEHSVARLDVAWRETSEDAWSHEVLTAQGRTVPASETLWMRSREVWIHAVDLGAVATFGDIPEVILRTLAAEITQKWTSQGAGEGLVLLDEPSSTRYPAAPGQDEVVVSGSLAGIVRYAAGRGSDGVTSSTGEVPEPPRWL | not soluble |
| MGSDKIHHHHHHMTTNCVIVSQRYPPEKGGNASRIHDTAVNLGDEFNVTVLAPSLCYPPGNFERTWKRKQTERDEGVIVHRLWTWQPQRENPSLLRRLPYYVIFALHAALWLVVNFRQYDVVMTSTPPITTGFPGLVAAAIGNPWVIDVRDLWIENSIALGYIQADSPLVKAGRTFQRLALHSADRITVTTETLRDAVGDTYGSELRDRVRVVPNGVDTDRFSSVSTPENNDSRIVYTGNIGSAQALEPCIRAMQHVSSDNALLQLVGDGDEVSRLKSVTERLGLEDRVEFVGLVDRERIPEILDSATVGLAPIKDSPELDYAIPTKLYEYMACSLPVVVTGRGEIKRFTTDTDVGIHTEPDPESIAVAIETLLENPEKRVAMGQDGHRVVSEEYDRQAIAGQLGEVFRTLTVTERRESCTTPDPDHD | not soluble |
| MGSDKIHHHHHHMTTNIKTDFSPPATATPVLEMQGIAKRFHGVPALQGVNLTIYPGEVHALMGENGAGKSTLMKILAGAYIADEGEIRINGKGVKITDPGTARQAGINLIYQELNVAPNLTVTENIFMGSELTRGQFLDRKAMELEAQQVLASLGASFAPTDIVGTLAIAEQQQVEIARALKDNSRILVMDEPTAALSDRETERLFEVIRKLRNDGIAIIYISHRMEEIYALADRISVLRDGQYIGSLTREEISPQRLVQMMVGRSMQDFYEHQRQSNPGPVVLEVRNISDGRKVQPASFQLRAGEILGLAGLVGAGRTEVSRLIFGADRKVSGEVFLNGKKLEIHSPSDAIAVGIGYVPEDRKDQGLFLEMSSRKNIGLNRLKQDANLGIVNWGSVNKIATDAVENFHIRLANLEIRAVDLSGGNQQKLLLARWLAINPRVLMLDEPTRGVDIGAKSEIYRIISDLSAQGVAILMVSSELPEIVGLSDRVLVMREGQLVGELDNSIGKEITQENIMHYATGASEVTAS | not soluble |
| MGSDKIHHHHHHMTTVLPLDPARYTPHLLHSAERMWPETNCYVDLWIEVLCVLGLPPEAMLGFTLTQDFEGDQFTFFKVPLEDLEALYGIRVTELAIFDRAEAHVAQQISRGRLCLVEMDSYFMPDTAGVGYRQHHGKTTVGVNRLDLAGRSMDYFHNGGFFRLEAEDFDGIWQLAAPETAPFLPYTEFAKFPETRPDETHLRAVAKRLFAFHFARRPQGNPFAGFAEVFPAQVEAIAERPFGYFHTYAFNTLRQFGANFELLASHLKWLAADDRYTNEIAEALRISELAKTVQFQLARAVTRKKFDPLKAALDPAIDAWDRLMTGLADKMA | not soluble |
| MGSDKIHHHHHHMTWSATWRLSLELRQLRYLVGVVDAGSVSRAAQSLHVAQPALSAQIARLEEELGARLLIRSVRGVVPTEAGTAVLRQARLILKQVDAIAELAHEADADPTGSVSLGLPWTVRSVVGLPLLHQVRERLPQVRLEIIEGPSPALAMQTAQGKLDLAVVFENTPDNSLVLKPLATESLLLVGQRGSLVGRHNLKLEELAGLPLLMLSRPNGVREDIERQCAKRGIRLKIVAEINAPSLLIDAVRGGLGYSVLPACGIEQACRDGLLDAITLEGGSMQRTAHLGTSKLFALSRAAEHTAALLQESVAHAIGDRRWQATSPNEAD | not soluble |
